# Data: US20130011378A1, “Stable formulations of a hyaluronan-degrading enzyme” (priority 2011, published 2013)
# Test: RP-HPLC: insulin apparent solubility / percent recovery
# Details: 7 days at 2-8° C.
# Outline: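 Vial samples withdrawn at each time point, centrifuged, held at 4 °C, run in duplicate by RP-HPLC. Apparent solubility = combined insulin main and desamido peak areas as percent versus standards/initial formulation; purity = main insulin peak as percent of all insulin species.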
substance,measurement,setting,value
"regular insulin: mature human insulin, SEQ ID NOS: 103 and 104","Solubility of regular Insulin, % remaining of the original concentration","0.2% methylparaben + […] m-cresol, pH 6.6, NaCl 50 mM",15.3%
same,"Solubility of regular Insulin, % remaining of the original concentration","0.2% methylparaben + […] m-cresol, pH 6.6, NaCl 80 mM",9.0%
same,"Solubility of regular Insulin, % remaining of the original concentration","0.2% methylparaben + […] m-cresol, pH 6.6, NaCl 140 mM",5.8%
same,"Solubility of regular Insulin, % remaining of the original concentration","0.2% methylparaben + […] m-cresol, pH 6.8, NaCl 50 mM",34.1%
same,"Solubility of regular Insulin, % remaining of the original concentration","0.2% methylparaben + […] m-cresol, pH 6.8, NaCl 110 mM",11.4%
same,"Solubility of regular Insulin, % remaining of the original concentration","0.2% methylparaben + […] m-cresol, pH 7.0, NaCl 50 mM",86.9%
same,"Solubility of regular Insulin, % remaining of the original concentration","0.2% methylparaben + […] m-cresol, pH 7.0, NaCl 80 mM",46.6%
same,"Solubility of regular Insulin, % remaining of the original concentration","0.2% methylparaben + […] m-cresol, pH 7.0, NaCl 140 mM",15.9%
same,"Solubility of regular Insulin, % remaining of the original concentration","0.2% methylparaben + […] m-cresol, pH 7.2, NaCl 80 mM",90.6%
same,"Solubility of regular Insulin, % remaining of the original concentration","0.2% methylparaben + […] m-cresol, pH 7.2, NaCl 110 mM",47.1%
same,"Solubility of regular Insulin, % remaining of the original concentration","0.2% methylparaben + […] m-cresol, pH 7.2, NaCl 140 mM",32.9%
same,"Solubility of regular Insulin, % remaining of the original concentration","0.2% methylparaben + […] m-cresol, pH 7.4, NaCl 50 mM",98.1%
same,"Solubility of regular Insulin, % remaining of the original concentration","0.2% methylparaben + […] m-cresol, pH 7.4, NaCl 80 mM",97.7%
same,"Solubility of regular Insulin, % remaining of the original concentration","0.2% methylparaben + […] m-cresol, pH 7.4, NaCl 110 mM",94.6%
same,"Solubility of regular Insulin, % remaining of the original concentration","0.2% methylparaben + […] m-cresol, pH 7.4, NaCl 140 mM",59.1%
same,"Solubility of regular Insulin, % remaining of the original concentration","0.2% methylparaben + […] m-cresol, pH 7.6, NaCl 50 mM",98.1%
same,"Solubility of regular Insulin, % remaining of the original concentration","0.2% methylparaben + […] m-cresol, pH 7.6, NaCl 80 mM",97.9%
same,"Solubility of regular Insulin, % remaining of the original concentration","0.2% methylparaben + […] m-cresol, pH 7.6, NaCl 140 mM",95.4%
same,"Solubility of regular Insulin, % remaining of the original concentration","0.2% phenol + […] m-cresol, pH 6.6, NaCl 50 mM",26.8%
same,"Solubility of regular Insulin, % remaining of the original concentration","0.2% phenol + […] m-cresol, pH 6.6, NaCl 80 mM",8.7%
same,"Solubility of regular Insulin, % remaining of the original concentration","0.2% phenol + […] m-cresol, pH 6.6, NaCl 110 mM",6.5%
same,"Solubility of regular Insulin, % remaining of the original concentration","0.2% phenol + […] m-cresol, pH 6.6, NaCl 140 mM",5.8%
same,"Solubility of regular Insulin, % remaining of the original concentration","0.2% phenol + […] m-cresol, pH 6.8, NaCl 50 mM",38.4%
same,"Solubility of regular Insulin, % remaining of the original concentration","0.2% phenol + […] m-cresol, pH 6.8, NaCl 80 mM",17.1%
same,"Solubility of regular Insulin, % remaining of the original concentration","0.2% phenol + […] m-cresol, pH 6.8, NaCl 140 mM",6.5%
same,"Solubility of regular Insulin, % remaining of the original concentration","0.2% phenol + […] m-cresol, pH 7.0, NaCl 50 mM",100.3%
same,"Solubility of regular Insulin, % remaining of the original concentration","0.2% phenol + […] m-cresol, pH 7.0, NaCl 80 mM",35.7%
same,"Solubility of regular Insulin, % remaining of the original concentration","0.2% phenol + […] m-cresol, pH 7.0, NaCl 110 mM",17.7%
same,"Solubility of regular Insulin, % remaining of the original concentration","0.2% phenol + […] m-cresol, pH 7.0, NaCl 140 mM",11.6%
same,"Solubility of regular Insulin, % remaining of the original concentration","0.2% phenol + […] m-cresol, pH 7.2, NaCl 80 mM",92.2%
same,"Solubility of regular Insulin, % remaining of the original concentration","0.2% phenol + […] m-cresol, pH 7.2, NaCl 110 mM",37.4%
same,"Solubility of regular Insulin, % remaining of the original concentration","0.2% phenol + […] m-cresol, pH 7.2, NaCl 140 mM",18.9%
same,"Solubility of regular Insulin, % remaining of the original concentration","0.2% phenol + […] m-cresol, pH 7.4, NaCl 80 mM",99.2%
same,"Solubility of regular Insulin, % remaining of the original concentration","0.2% phenol + […] m-cresol, pH 7.4, NaCl 110 mM",87.8%
same,"Solubility of regular Insulin, % remaining of the original concentration","0.2% phenol + […] m-cresol, pH 7.4, NaCl 140 mM",40.6%
same,"Solubility of regular Insulin, % remaining of the original concentration","0.2% phenol + […] m-cresol, pH 7.6, NaCl 80 mM",99.2%
same,"Solubility of regular Insulin, % remaining of the original concentration","0.2% phenol + […] m-cresol, pH 7.6, NaCl 110 mM",98.5%
same,"Solubility of regular Insulin, % remaining of the original concentration","0.2% phenol + […] m-cresol, pH 7.6, NaCl 140 mM",82.2%
same,"Solubility of regular Insulin, % remaining of the original concentration","[…] phenol + […] m-cresol, pH 6.6, NaCl 50 mM",31.2%
same,"Solubility of regular Insulin, % remaining of the original concentration","[…] phenol + […] m-cresol, pH 6.6, NaCl 80 mM",18.6%
same,"Solubility of regular Insulin, % remaining of the original concentration","[…] phenol + […] m-cresol, pH 6.6, NaCl 140 mM",12.9%
same,"Solubility of regular Insulin, % remaining of the original concentration","[…] phenol + […] m-cresol, pH 6.8, NaCl 50 mM",66.6%
same,"Solubility of regular Insulin, % remaining of the original concentration","[…] phenol + […] m-cresol, pH 6.8, NaCl 80 mM",24.9%
same,"Solubility of regular Insulin, % remaining of the original concentration","[…] phenol + […] m-cresol, pH 7.0, NaCl 50 mM",96.7%
same,"Solubility of regular Insulin, % remaining of the original concentration","[…] phenol + […] m-cresol, pH 7.0, NaCl 80 mM",80.8%
same,"Solubility of regular Insulin, % remaining of the original concentration","[…] phenol + […] m-cresol, pH 7.0, NaCl 110 mM",32.9%
same,"Solubility of regular Insulin, % remaining of the original concentration","[…] phenol + […] m-cresol, pH 7.0, NaCl 140 mM",17.1%
same,"Solubility of regular Insulin, % remaining of the original concentration","[…] phenol + […] m-cresol, pH 7.2, NaCl 80 mM",96.4%
same,"Solubility of regular Insulin, % remaining of the original concentration","[…] phenol + […] m-cresol, pH 7.2, NaCl 110 mM",58.7%
same,"Solubility of regular Insulin, % remaining of the original concentration","[…] phenol + […] m-cresol, pH 7.2, NaCl 140 mM",33.1%
same,"Solubility of regular Insulin, % remaining of the original concentration","[…] phenol + […] m-cresol, pH 7.4, NaCl 50 mM",96.7%
same,"Solubility of regular Insulin, % remaining of the original concentration","[…] phenol + […] m-cresol, pH 7.4, NaCl 80 mM",97.3%
same,"Solubility of regular Insulin, % remaining of the original concentration","[…] phenol + […] m-cresol, pH 7.4, NaCl 110 mM",94.2%
same,"Solubility of regular Insulin, % remaining of the original concentration","[…] phenol + […] m-cresol, pH 7.4, NaCl 140 mM",57.9%
same,"Solubility of regular Insulin, % remaining of the original concentration","[…] phenol + […] m-cresol, pH 7.6, NaCl 50 mM",97.2%
same,"Solubility of regular Insulin, % remaining of the original concentration","[…] phenol + […] m-cresol, pH 7.6, NaCl 80 mM",97.1%
same,"Solubility of regular Insulin, % remaining of the original concentration","[…] phenol + […] m-cresol, pH 7.6, NaCl 110 mM",97.1%
same,"Solubility of regular Insulin, % remaining of the original concentration","[…] phenol + […] m-cresol, pH 7.6, NaCl 140 mM",91.7%
